Fewer inactive variants are shown than the library holds.
B1: TPR 5TU (parent)
chain: GGAUCUUCUCGAUCUAACAAAAAAGACAAAUCUGCCACAAAGCUUGAGAGCAUCUUCGGAUGCAGAGGCGGCAGCCUUCGGUGGCGCGAUAGCGCCAACGUUCUCAACUAUGACACGCAAAACGCGUGCUCCGUUGAAUGGAGUUUAUCAUG

Variants of: B1
Test: polymerase ribozyme fitness, log enrichment relative to wild type (log ratio); higher = more active; in vitro selection for triplet polymerase activity
How it was run: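 Mutant libraries were PCR-built and transcribed for each subunit of a heterodimeric triplet polymerase ribozyme and selected for one round in triplicate at −7 °C, frozen, before gel excision of extended constructs and streptavidin-bead capture. Input and output libraries were Illumina-sequenced, keeping genotypes with ≥10 input reads and ≥1 read per output. Fitness is a logarithmic ratio of genotype to wild-type enrichment, in base 2, using inverse-variance-weighted replicate averages.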

| Variant | polymerase ribozyme fitness (log ratio) |
| --- | --- |
| G48U A106G | -1.48 |
| A21U C38A G81A | 0.0427 |
| G42A C54U G117A | ≤ -4.2 |
| A19G A23U C57G G84U C93G G94C A122U A142C | ≤ -4.2 |
| A17U A19G A22U C93A | -4.01 |
| C5A C85U | -0.371 |
| U33A U53A U148C | ≤ -4.2 |
| A91U G140U | ≤ -4.2 |
| C5U A12U G84U | -1.92 |
| G62U G86C C95G C132U | ≤ -4.2 |
| A19U A23C A29G G83C A97U C103G U139C | ≤ -4.2 |
| A37C A41G G86C G92U C95U | -3.05 |
| A37C U144A | -0.958 |
| A47C G62A G70A U82A C85U G86A G152C | ≤ -4.2 |
| U6A C38G G42C G86U C93U U127A | ≤ -4.2 |
| U33C C57U G80U G83U C87U G128U | ≤ -4.2 |
| C10G U13C C85G U109G A115U G140U | ≤ -4.2 |
| C69A A91U | ≤ -4.2 |
| U55A C132A A137G G143A U146G | ≤ -4.2 |
| A49G U139A | -4.08 |
| C51G G83U A110C G140C | ≤ -4.2 |
| A3U G58C | -0.0781 |
| C35U C57U C95G C99G A120U | -3.85 |
| A73C A121U G133U | ≤ -4.2 |

| Variant | polymerase ribozyme fitness (log ratio) |
| --- | --- |
| A91G C118U A121U A122U G124A | -3.56 |
| G50C C93U U104G G136U G141A | ≤ -4.2 |
| A39G G70A U77G G141A A142C | ≤ -4.2 |
| U31C G46C G92A | -3.48 |
| C85U G117U | 0.675 |
| C54A G84A A142C | -4.19 |
| G11C G46C C57U C85U | -3.93 |
| U4A G11C A20U A28U G143U U146G | ≤ -4.2 |
| C35U G50C C76A C79G C87G A142C G152U | ≤ -4.2 |
| U13A C51U C54A G86U C116U A120G | ≤ -4.2 |
| G48A G67A U77C A97U U145G A150U | ≤ -4.2 |
| G59U A91U | -4.12 |
| U33C G68A | -3.97 |
| C5G G84A | -0.0388 |
| A22U A30C G81A C116G | -3.8 |
| U13G A17U A21G A22G G50C G59A G70C C72U C125G | ≤ -4.2 |
| G42C C85U | -3.97 |
| C18G C76G C85A U145A | ≤ -4.2 |
| U7A U55A C85U C114A G136C | ≤ -4.2 |
| C129A U148G | -4.11 |
| G58A U82C G92C A110U G136A | ≤ -4.2 |
| G100A C129G | ≤ -4.2 |
| G59C A107U G143U | ≤ -4.2 |
| G50U G92A | -2.93 |

| Variant | polymerase ribozyme fitness (log ratio) |
| --- | --- |
| C63U G126C | 0.627 |
| C57G G59U C85U | -1.11 |
| U55G C79U A91C G124C C129A A137U | ≤ -4.2 |
| A52U G59C A91U | ≤ -4.2 |
| A39G G117C | -1.91 |
| C69G C103G C116U | -2.03 |
| A20U A40U C69A | -2.77 |
| A28U C75U G84U G86A C93U A106G A113U | ≤ -4.2 |
| A40C G81A | 0.951 |
| U9G G34U C85A U139A | ≤ -4.2 |
| G84A G136A U148C | -1.66 |
| C35A G126A | -3.51 |
| C35U C38A G83U G152A | ≤ -4.2 |
| G50C C63G G94C C103A C132U | -4.08 |
| C38U G62A A113G G136A | -2.45 |
| G83U A150G | -3.14 |
| A19C C38A C57A G80U C95U C116G | -1.83 |
| G92A A107G | ≤ -4.2 |
| A21C U33G C87U U145A A150U | ≤ -4.2 |
| C57U C116G | 0.474 |
| C93U G136A | -1.1 |
| A16U C51U C95U | -2.98 |
| U61C C69U G70U G86U A107C | ≤ -4.2 |
| A137G | -1.15 |

| Variant | polymerase ribozyme fitness (log ratio) |
| --- | --- |
| A16C A40C G59A C93U A106G | -2.02 |
| C96A U130C | 0.457 |
| A73C C96G C118U G143U | ≤ -4.2 |
| C35U C43A C95G U101C | ≤ -4.2 |
| A21U G84C A121U A122C | -1.35 |
| C5G G34A U134A | -3.83 |
| A22C C85A | -1.08 |
| G46A G50A C57U A60G G68A G83A G94U G141C | ≤ -4.2 |
| A17U G84A C123G | -0.525 |
| C54A C57G | -3 |
| A49C A52C A91U U130A U134A U135C A142G | ≤ -4.2 |
| A22U U31C G81C A89C | 1.01 |
| C14G C85A C116U A122C | ≤ -4.2 |
| A60U G84A C116U | -1.05 |
| U4G G11U A20U A28U U56A C85U C99U U151A | ≤ -4.2 |
| C14A A150G | -2.78 |
| A26U A28C A52C G58A U139G A147C | ≤ -4.2 |
| U9G A73U C87U U102A C105G C108A | ≤ -4.2 |
| A22U A73C G92U A110G U111C G141C | ≤ -4.2 |
| C93A C103G | -3.88 |
| C38U A60C U61A C76U C87G C93A G136A G141A | ≤ -4.2 |
| C10U C57U C96U | -3.83 |
| C38U C95A | -1.07 |
| A52C A110G A150G | -3.86 |

| Variant | polymerase ribozyme fitness (log ratio) |
| --- | --- |
| C38A C118U A120C G141A | -0.525 |
| A24C U55A C57U G58U A66G G68C C85A C149G | ≤ -4.2 |
| C54U A91U | ≤ -4.2 |
| C35U G50U U56A G68A C85U A137C | ≤ -4.2 |
| C85G C99G | -4.1 |
| C8G C14A A39C G74U G143U | ≤ -4.2 |
| A17U C87U G94C | -3.01 |
| C38U A41G G58A | 1.52 |
| U61C G126A | -0.237 |
| A30U G71C C95A | ≤ -4.2 |
| A12C G50C A66C C79G C93U C95U U139C A147U | ≤ -4.2 |
| A23U C93A A97G A113G G124U | ≤ -4.2 |
| A12G A30U U146G | -3.66 |
| C5G U7G A12C A22U U90C U144A | ≤ -4.2 |
| U31C A47G A49U G94A A119G G136C | -4.04 |
| C85U A98C G117C | 0.631 |
| G83U G100U C103A C131U | ≤ -4.2 |
| U7C A23G U82G G83A U146G A150G G152C | ≤ -4.2 |
| G25U G48A G84A C96G | -4.04 |
| C95A C96A U104C A142C | -4.07 |
| A28C C32U A52U U53G C93A G112C G143U | ≤ -4.2 |
| G11U U56A C79G C87G C96U A142G | ≤ -4.2 |
| U82A G92C | 0.508 |
| A19C U31A C38A G80A A98U | -0.863 |

| Variant | polymerase ribozyme fitness (log ratio) |
| --- | --- |
| A3C C14A A26G G50C A91G G117A C125U G140A G143C | ≤ -4.2 |
| U44A U82G G84C C87G A113C C118U | ≤ -4.2 |
| A47U G86U U134A | -3.84 |
| U56G G100U U134A U146A U148A | ≤ -4.2 |
| A39U A52U C76G G83A | ≤ -4.2 |
| A47G G140A | -3.51 |
| G50C C95G U101G A115U C118G A122C G126U | ≤ -4.2 |
| C51U U55A C76A U90C C96G G100A U101G | ≤ -4.2 |
| U139C U144A | -3.36 |
| A40C C75U C116U A119C | -1.75 |
| U55A C108G | ≤ -4.2 |
| C132U U135A | -2.46 |
| C38G A73U C95A U146G | -2.85 |
| G11U U44A G92C | ≤ -4.2 |
| A41C U44A G84A U146G | ≤ -4.2 |
| A89C C105U | 0.174 |
| A19U A52C | -1.34 |
| A12G A40C A41G U56A U82G C99A A113C C125U | ≤ -4.2 |
| A47C G141A | -1.5 |
| G59U C75A C96G | ≤ -4.2 |
| A52G C57A G83U A91G C95A | -4.15 |
| U31C G34U A52U U56A A60G G84A G92A C95G C105A A110C G133C U148A | ≤ -4.2 |
| C75G G92C C123A | ≤ -4.2 |
| U55A G94C U148G | ≤ -4.2 |

| Variant | polymerase ribozyme fitness (log ratio) |
| --- | --- |
| A49C C79A C108U C123A | ≤ -4.2 |
| G68C U78C C96A A98G G143A | ≤ -4.2 |
| A52C A73U | -3.14 |
| C54U U77C G88A C96U A106C | ≤ -4.2 |
| A41C G83C | -0.571 |
| A30U C35U G141U | ≤ -4.2 |
| C5G U101G | 0.0588 |
| A12U C14A C85G U145C | -3.7 |
| G58C C63U A120C | -0.534 |
| U55G A98U U144G | 0.317 |
| U44A C87A U90C C93G C105G A122G | ≤ -4.2 |
| A19U G48A C116G U127G | ≤ -4.2 |
| C14U A17U A19C U44A G68A A73G G86U C96U C149G | ≤ -4.2 |
| A12G A39U G42C C57A G59C C79A U134A | ≤ -4.2 |
| A41U G83A | -0.754 |
| U53A A120G | -1.88 |
| C54G G65A C79U C85G A91U G136C | ≤ -4.2 |
| A19U A29U A39G U44G C85U G143U | ≤ -4.2 |
| A26C A47C U77C U102C G117C | ≤ -4.2 |
| C38U C63A G94C | -0.694 |
| U4G C8U U56A G84A | -1.05 |
| A40G C54U C76U A91C C95G G143U | ≤ -4.2 |
| A29G A30C G59C U90G C95G G133U | ≤ -4.2 |
